Data: publication PMC10117725, “From an Hsp90 - binding protein to a peptide drug” (microLife, 2022)

Molecular target: T1, Hsp90α (Homo sapiens, UniProt P07900)
T1 construct: purchased Abcam
Type: binding
Details: dot blot, 2 µg blotted on membrane, 20 µg recombinant Hsp90α at 4°C overnight, α-Hsp90α immunodetection
Method: Two µg of each peptide was blotted (dot blot) directly on PDV nitrocellulose membrane and blocked with ROTI®Block (Carl Roth, Germany). After washing, the membrane was then incubated with 20 μg of recombinant Hsp90α (Abcam)/Lpl1-his protein at 4°C overnight. In case of interaction studies with Hsp90α, α-Hsp90α (produced in mouse, Abcam) was used as the primary antibody and for interaction studies with Lpl1-his, Anti-6X His tag antibody (also produced in mouse, Sigma-Aldrich, Germany) was used. Alkaline phosphatase conjugated goat-α-mouse IgG (Sigma-Aldrich, Germany) served as the secondary antibody. Detection was done using BCIP®/NBT solution (Sigma, Germany). Lpl1-his was isolated and purified as described in our previous paper (Tribelli et al. [2020]).

B1: Lpl1: model Lpl lipoprotein of S. aureus, parent protein of the peptides (protein)
chain: CGKGNETKEDSKEEQIKKSFAITLDMYPIKNLEDLYDKEGYRDSEFKKGDKGMWTIYTDFAKSNKPGELDDEGMVLNLDRNTRTAKGHYFVTTFYRNGKLPDEKNYKIEMKNNKIILLDEVKDDKLKQKIENFKFFGQYANLKELRKYNNGDVSINENVPSYDVEYKMSNKDEIVKELRSRYNISTEKSPILKMHIDGDLKGSSVGYRKLEIDFSKRENSKLSVIEFLSYKPAKK
modifications: left off: His tag, end not stated, kept
notes: model Lpl lipoprotein of S. aureus, parent protein of the peptides
Interaction with Hsp90α: Yes
